Reference: the nanobody polyreactivity screen of Harvey et al. (2022)

Experiment: yeast display, Sf9 membrane polyspecificity reagent, FACS + sequencing; frameworks hold sequencing errors
Summary of the method: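 After 36–48 hours of galactose induction, yeast (Saccharomyces cerevisiae BJ5465) displaying a synthetic nanobody library were stained at 4 °C for 1 hour with 10% biotinylated, detergent-solubilized Sf9 membrane reagent. Streptavidin microbeads enriched the stained cells before FACS sorting into low and high (top ~1%) gates on anti-HA and streptavidin fluorescence. Each clone's polyreactivity label reflects its gate of origin.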
For “QVQLGESGGGLVQAGGSLRLSCAASGITFWSYAMGLYRQAPGKERELVATIRWSGGGTYYADSVKGRFTISRDNAKNTVYLQMNSLKPEDTAVYYCNADDYGHPPYDYWGQGTQVTVSS”, the “polyreactivity (PSR sort gate)” value was “high polyreactivity”.
In the case of “QVQLGESGGGLVQAGGSLRLSCAASGRIFLRNVMGWYRPAPGKERELVAAISLSGASTYYADSVKGRFTISRDNAKNTVYLQMNSLKPEDTAVYYCAADITILSDYWGQGTQVTVSS”, the “polyreactivity (PSR sort gate)” value is reported as “low polyreactivity”.
In the case of “QVQLGESGGGLVQAGGSLRLSCAASGRIFTSYPMGWYRQAPGKERELVAAISRSGGSTYYADSVKGRFTISRDNAKNTVYLQMNSLKPEDTAVYYCAKARVVAGYDYWGQGTQVTVSS”, the “polyreactivity (PSR sort gate)” value is reported as “high polyreactivity”.
In the case of “QVQLGESGGGLVQAGGSLRLSCAASGRIFVKYAMGWYRQAPGKERELVAAISKSGGSTYYADSVKGRFTISRDNAKKTVYLQMNSLKPEDTAVYYCATRSREQYSVSYRLDFWGQGTQVTVSS”, the “polyreactivity (PSR sort gate)” value is reported as “low polyreactivity”.
In the case of “QVQLGESGGGLVQAGGSLRLSCAASGRTFYSYAMGWYRHAPWKERELVAAISASGGRTYYADSVKGRFTISRDNEKNTVYLQMNSLKPEDTAVYYCAAYPWYRMWGQGTQVTVSS”, the “polyreactivity (PSR sort gate)” value is reported as “high polyreactivity”.
In the case of “QVQLGESGGGLVQAGGSLRLSCAASGRTFYVYAMGWYRQAPGKERELVASIRRSGGITYYADYVKGRFTISRDNAKNTVYLLMNSLKPEDSAVYYCNARRGPGRREYDYWGQGTQVTVSS”, the “polyreactivity (PSR sort gate)” value is reported as “high polyreactivity”.
In the case of “QVQLGESGGGLVQAGGSLRLSCAASGRTLSYYARGWYRHAPGKEREFVAAITGSGGSTYYADSVKGRFTISRDNAKNTVYLQMHSLQPADTAVYYCNAKGLGVFTVEYYYWGQGTQVTVSS”, the “polyreactivity (PSR sort gate)” value is reported as “low polyreactivity”.
For “QVQLGESGGGLVQAGGSLRLSCAASGSIFAFNTMGWYRQAPGKERELVAAITWGGGSTYYADSVKGRFTISRDNAKNTVYLQMNSLKPEDTAVYYCAARRSGRTRYYWGQGTQVTVSS”, the “polyreactivity (PSR sort gate)” value was “high polyreactivity”.
For “QVQLGESGGGLVQAGGSLRLSCAASGSIFGHYAMGWYRQAPGKERELVAAISWSGTSTYYADSVKGRFTISRDNAKNTVYFQMNTLKPEDTAVYYCNVVYRVVSPSGGGYWGQGTQVTVSS”, the “polyreactivity (PSR sort gate)” value was “high polyreactivity”.
In the case of “QVQLGESGGGLVQAGGSLRLSCAASGSIFRGYTMGWYRQAPGKERELVAGISFSGTRTYYADSVKGRFTISRDNAKNTVYLQMNSLKPEDTAVYYCAAVSPYGSQYGYWGQGTQVTVSS”, the “polyreactivity (PSR sort gate)” value is reported as “high polyreactivity”.
With “QVQLGESGGGLVQAGGSLRLSCAASGSIFRYYVMGWYRQAPGKERELVATISRDSSRNYADSVKGRFTISRDNAKNTVYLQMNSLKPEDTAVYYCNTEGGVIRSYWYDYWGQGTQVTVSS” the “polyreactivity (PSR sort gate)” value was “low polyreactivity”.
With “QVQLGESGGGLVQAGGSLRLSCAASGSILRSYAMGWYRQAPGKERELVAVINGSGDRTYYADSVKGRFTISRDTAKNTVYLQMNSLKPEDTAVYYCNVVRRSPGDYSYYYWGKGTQVTVSS” the “polyreactivity (PSR sort gate)” value was “low polyreactivity”.
With “QVQLGESGGGLVQAGGSLRLSCAASGSIYVNAMGWYRQAPRKERELVAVISKSGGSTYYADSVKGRFTISRDNAKNTVYLQMNSLKPEETAVYYCAASRPSPGPRYGYWGQGTQVTVSS” the “polyreactivity (PSR sort gate)” value was “high polyreactivity”.
For “QVQLGESGGGLVQAGGSLRLSCAASGSTFESYAMGWYRPAPGKEWELVAAINGGGRTYYADSVKGRFTISRDTAKNTVYLQMNSLNPEDTAVYYCAAEYRRGYYWPWGWEYYWGQGTQVTVSS”, the “polyreactivity (PSR sort gate)” value was “low polyreactivity”.
With “QVQLGESGGGLVQAGGSLRLSCAASGSTFHPHAMGWYRQAPGKERELVATIRRTGDSTYDADSVKGRFTISRDHAKNTVNLQMNSLKPEDTAVYYCAARYYAESYRYYYWGQGTQGTVSS” the “polyreactivity (PSR sort gate)” value was “high polyreactivity”.
With “QVQLGESGGGLVQAGGSLRLSCAASGSTFNRYAMGWYIQAPGKERELVAAITVRGNTYYADSVKGRFTISRDNAKNTVDVQMNSVKPEDTAVYYCNAVSASPSYVYRPYFKRGYWGQGTQGTVSS” the “polyreactivity (PSR sort gate)” value was “high polyreactivity”.
In the case of “QVQLGESGGGLVQAGGSLRLSCAASGSTFNRYAMGWYRQAPGKERELVAAISFSGGRTYYADSVKGRFTISRDNAKNTVYLQMNSLKPEDSAVYYCTKVVYGYFTRAYTYNYWGQGTQVTVSS”, the “polyreactivity (PSR sort gate)” value is reported as “high polyreactivity”.
